Results taken from paper PMC5941314 (2018).

Experiments:
Assay in all cases: ITC 25 C, TWO LABS merged (one a row), salt differs
UBE2L3 = UBE2L3 (Homo sapiens (Human), UniProt P68036)
UBE2D2 = UBE2D2 (Homo sapiens (Human), UniProt P62837)
UBE2N = biological target: T1, UBE2N (Homo sapiens (Human), UniProt P61088)
T1 chain: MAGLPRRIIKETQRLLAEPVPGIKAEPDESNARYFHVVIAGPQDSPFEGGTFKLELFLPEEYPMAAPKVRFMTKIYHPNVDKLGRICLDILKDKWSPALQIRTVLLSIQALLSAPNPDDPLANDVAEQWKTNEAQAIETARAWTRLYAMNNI

Sequence of UBE2D2 (P62837 whole entry, looked up): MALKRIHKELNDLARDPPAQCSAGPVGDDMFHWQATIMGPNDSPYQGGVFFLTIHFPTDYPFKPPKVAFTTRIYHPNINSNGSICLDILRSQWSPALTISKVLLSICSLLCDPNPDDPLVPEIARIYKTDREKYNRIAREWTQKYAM
Sequence of UBE2L3 (P68036 whole entry): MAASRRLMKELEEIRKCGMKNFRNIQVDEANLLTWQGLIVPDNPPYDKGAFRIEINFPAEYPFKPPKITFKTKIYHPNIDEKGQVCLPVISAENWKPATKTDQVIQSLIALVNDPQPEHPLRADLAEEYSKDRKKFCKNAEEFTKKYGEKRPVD

- Kd (UBE2L3): 27.3 µM
- Kd (UBE2D2): 32 µM
- Kd (UBE2N): 264 µM
B1: Arkadia (protein)
chain: KQDGEEGTEEDTEEKCTICLSILEEGEDVRRLPCMHLFHQVCVDQWLITNKKCPICRVDIEAQLPSES
